Assay results taken from PMC7680425 (Cell chemical biology, 2020).
* marks the point of attachment. CONH‑phenylbutyl = C-terminal alpha-ketoamide warhead with phenylbutyl on the amide nitrogen, O=C(NCCCCc1ccccc1)*; B(OH)2 = C-terminal boronate warhead, OB(O)*

How the values were obtained:
[1] = target: T1, E. coli GlpG consisting of residues 87-276 (ΔN-GlpG) (E. coli, UniProt P09391 87-276); test: crystal structure
T1 sequence (looked up): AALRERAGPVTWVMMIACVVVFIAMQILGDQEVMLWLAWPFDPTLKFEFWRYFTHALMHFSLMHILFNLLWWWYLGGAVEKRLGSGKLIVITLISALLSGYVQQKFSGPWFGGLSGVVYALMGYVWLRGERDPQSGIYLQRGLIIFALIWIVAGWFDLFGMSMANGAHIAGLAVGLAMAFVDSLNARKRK

[2] = target: P. falciparum rhomboid protease PfROM4 (HA-tagged) (P. falciparum); test: cell-based or functional assay

Row | Binder | binding result [1] | EC50 of inhibition of EBA175 cleavage by PfROM4 in HEK293T cells [2]
1 | Ac-KRFRSMQYSA-{B(OH)2} (SMILES CSCC[C@H](NC(=O)[C@H](CO)NC(=O)[C@H](CCCNC(=N)N)NC(=O)[C@H](Cc1ccccc1)NC(=O)[C@H](CCCNC(=N)N)NC(=O)[C@H](CCCCN)NC(C)=O)C(=O)N[C@@H](CCC(N)=O)C(=O)N[C@@H](Cc1ccc(O)cc1)C(=O)N[C@@H](CO)C(=O)N[C@@H](C)C(=O)B(O)O) [rhomboid-inhibiting boronate (RiBn), Ac-KRFRSMQYSA-B(OH)2] | binds | –
2 | Ac-RVWHA-{CONH‑phenylbutyl} [rhomboid-inhibiting ketoamide (RiKa), Ac-RVWHA-CONH-phenylbutyl] | binds | 55 nM
